Source: article doi:10.1101/2023.02.16.528799

Target: TAX peptide, Human T-cell leukemia virus type I peptide on HLA-A2 (human)
Test: data from Cole et al., 2013

Substance: A6-TCR after mutation of the CDR3 beta loop (PDBID 4FTV)
- fold enhancement of binding over A6-TCR: 1000 fold
